No end group written: not given here. *: point of attachment. FITC = O=C1OC2(c3ccc(O)cc3Oc3cc(O)ccc32)c2ccc(NC(=S)*)cc21; Ahx = NCCCCCC(=O)O
Target: Human full-length (1-192) wild type BAX (human, UniProt Q07812 1-192)
Experiment: fluorescence polarisation

Chain of Human full-length (1-192) wild type BAX (Q07812 whole entry): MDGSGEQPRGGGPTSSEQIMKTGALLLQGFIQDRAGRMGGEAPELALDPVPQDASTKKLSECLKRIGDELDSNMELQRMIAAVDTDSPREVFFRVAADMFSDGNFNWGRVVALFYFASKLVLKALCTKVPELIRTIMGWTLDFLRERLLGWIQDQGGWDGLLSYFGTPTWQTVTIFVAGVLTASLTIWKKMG

{FITC-Ahx}-CEALKKALRRHRFLWQRRQRA [vMIA peptide, FITC-Ahx-CEALKKALRRHRFLWQRRQRA]: binds.

From paper PMC6430685 (Nature chemical biology, 2019)
